Measurements taken from patent US20180031558A1, “BIOMARKERS OF ACUTE LIVER INJURY” (The Regents of the University of Michigan, priority 2014, published 2018).
Entries after “also recorded” stand apart in the source; their conditions may differ. Where two headings read alike, the source gives them in different places.

What was measured:
[1] = test system: primary mouse hepatocytes; experiment: Viable cell count by trypan blue staining of treated primary hepatocytes; format: cell-based; settings: FasL 0.5 μg/ml, APAP 1 mM
Description: FIG. 2. Primary hepatocytes release CPS1 in response to difference types of liver injury. A: Primary mouse hepatocytes were cultured in the presence of hypoosmotic media (200 mOsm/L), FasL (0.5 μg/ml), and acetaminophen (APAP, 1 mM). The concentrated cell culture media and total cell lysates were used for immunoblotting with antibodies to the indicated proteins. B: After each treatment as in panel A, the viable cell count was determined using trypan blue staining after trypsin treatment. Each bar represents the mean of 10 to 15 fields. […] C: Mouse hepatocytes were challenged with FasL, APAP and hypoosmosis as in Panel A. Cells were fixed and immunostained with CPS1 (red) and counter stained with DAPI (blue). Arrows highlight areas with less dense CPS1 staining. Scale bar=20 μm.
Primary hepatocytes from mice were isolated (Snider et al. J Cell Biol 195: 217-29, 2011.; herein incorporated by reference in its entirety). The liver was perfused with 3-5 ml of perfusion media through the portal vein with a flow rate of 3 ml/min followed by perfusion with 15-20 ml of digestion media containing 150 units/ml of collagenase-II (Worthington) at the same flow rate. […] Serum ALT levels were determined using a Vetscan-vs2 instrument (ABAXIS) using the comprehensive diagnostic profile cartridge or using Unit for Laboratory Animal Medicine (ULAM) core facility at University of Michigan. […]

liver [2] = experiment: FasL and APAP induced mouse liver injury, histological analysis of liver sections; format: in vivo; settings: mice, intraperitoneal; FasL 0.15 μg/g, 4 h; APAP 700 mg/Kg, 8 h
Description: FIG. 4. CPS1 is released into serum during FasL and APAP induced mouse liver injury. Mice were injected with FasL (0.15 μg/g) and APAP (700 mg/Kg) and sacrificed after 4 h and 8 h, respectively. Liver damage was analyzed serologically, biochemically and histologically. Panel A: Immunoblots of serum CPS1, HMGB1 and caspase activation using total liver lysate. Coomassie stain of serum IgG heavy chain (just above the 50 kDa prominent species) and IgG light chain (25 kDa), and an actin blot of total liver lysates are included as loading controls. Serum ALT of the individual mice is also indicated (bottom of panel). Panel B: Hematoxylin and eosin stained liver sections. […] Scale bar=40 μm.
(§1) Primary hepatocytes from mice were isolated (Snider et al. J Cell Biol 195: 217-29, 2011.; herein incorporated by reference in its entirety). […] Serum ALT levels were determined using a Vetscan-vs2 instrument (ABAXIS) using the comprehensive diagnostic profile cartridge or using Unit for Laboratory Animal Medicine (ULAM) core facility at University of Michigan. […]
Mice were injected with FasL in saline (to induce apoptosis), or with APAP in DMSO (to induced necrosis) or were injected with vehicle (saline or DMSO). The serum and liver histology were then analyzed. For both the APAP and FasL conditions, CPS1 was more easily detected in the serum of the mice and parallels the elevation of ALT (FIG. 4A). […]

liver [3] = settings: mice fed 0.1% DDC for 10 days, 15 days, 6 weeks, 3 months
Description: Serum CPS1 in chronic liver injury. Panel A: The presence of serum CPS1 and HMGB1 was tested in animals exposed to the hepatotoxin DDC for 10 days, 15 days, 6 weeks and 3 months. Corresponding serum ALT values are also included. […] Each lane corresponds to serum from separate mice. Two mice for each time point were shown except the control. Panel B: Hematoxylin and eosin staining of livers from control and DDC-administered mice. Scale bar=40 μm. Panels C and D: Human sera from patients with chronic hepatitis B virus infection (HBV), chronic hepatitis C infection (HCV), or controls were analyzed for the presence of CPS1 and HMGB1. Serum from APAP and from control donors with normal ALT were used as positive and negative controls, respectively. […] Each lane represents separate patients or donors.
To test the CPS1 release during chronic mouse liver injury, mice were fed 0.1% DDC (a porphyrinogenic hepatotoxin) for 10-days, 15-days, 6-weeks and 3-months and serum CPS1 levels were analyzed.

[4] = rats; cited from earlier work
[5] = Half-life of CPS1 in mouse serum after FasL injection (western blot densitometry); format: in vivo
Description: FIG. 6. CPS1 has a short half-life in mouse serum. In order to determine the half-life of CPS1 in mouse serum, mice (five total) were injected with FasL (0.075 μg/g) and blood was collected from the same animal via tail vain at the indicated time points. Sera were used to determine serum ALT, or mixed with 2× SDS sample buffer to measure circulating serum CPS1 by western blot analysis. CPS1 pixel intensity (CPS1 OD) at each time point was determined by densitometry scanning. Panels A-D: Immunoblots of time-dependent serum CPS1 levels of four individual mice are shown. CPS1 OD and serum ALT values at each time point are indicated. A Coomassie stain of serum is included as loading control. To determine the half-life of serum CPS1, the OD values of 24 h to 32 h of all five mice were used. Assuming an exponential decay, half-life of CPS1 for each time interval was calculated using the equation; Ending amount=Beginning amount/[…]; where n=number of half-lives. […]
as §1

Molecule: CC(=O)Nc1ccc(O)cc1 [APAP, acetaminophen]
- cell death (viable cell count, trypan blue) [1]: significant cell deaths
- liver histology (hematoxylin and eosin) (liver [2]): necrotic cell death

Molecule: CCOC(=O)C1=C(C)NC(C)=C(C(=O)OCC)C1C [DDC]
- liver histology (hematoxylin and eosin) (liver [3]): early evidence of cell drop off at days 10 and 15

Molecule: FasL: Fas ligand, which induces hepatocyte cell death (apoptosis)
- liver histology (hematoxylin and eosin) (liver [2]): marked liver hemorrhage; also recorded: severe hemorrhage formation

B1: CPS1: most abundant mitochondrial matrix protein of liver, urea cycle enzyme; serum biomarker of acute liver injury (protein, UniProt P31327 39-1500, looked up)
Carbamoyl-phosphate synthase …: LSVKAQTAHIVLEDGTKMKGYSFGHPSSVAGEVVFNTGLGGYPEAITDPAYKGQILTMANPIIGNGGAPDTTALDELGLSKYLESNGIKVSGLLVLDYSKDYNHWLATKSLGQWLQEEKVPAIYGVDTRMLTKIIRDKGTMLGKIEFEGQPVDFVDPNKQNLIAEVSTKDVKVYGKGNPTKVVAVDCGIKNNVIRLLVKRGAEVHLVPWNHDFTKMEYDGILIAGGPGNPALAEPLIQNVRKILESDRKEPLFGISTGNLITGLAAGAKTYKMSMANRGQNQPVLNITNKQAFITAQNHGYALDNTLPAGWKPLFVNVNDQTNEGIMHESKPFFAVQFHPEVTPGPIDTEYLFDSFFSLIKKGKATTITSVLPKPALVASRVEVSKVLILGSGGLSIGQAGEFDYSGSQAVKAMKEENVKTVLMNPNIASVQTNEVGLKQADTVYFLPITPQFVTEVIKAEQPDGLILGMGGQTALNCGVELFKRGVLKEYGVKVLGTSVESIMATEDRQLFSDKLNEINEKIAPSFAVESIEDALKAADTIGYPVMIRSAYALGGLGSGICPNRETLMDLSTKAFAMTNQILVEKSVTGWKEIEYEVVRDADDNCVTVCNMENVDAMGVHTGDSVVVAPAQTLSNAEFQMLRRTSINVVRHLGIVGECNIQFALHPTSMEYCIIEVNARLSRSSALASKATGYPLAFIAAKIALGIPLPEIKNVVSGKTSACFEPSLDYMVTKIPRWDLDRFHGTSSRIGSSMKSVGEVMAIGRTFEESFQKALRMCHPSIEGFTPRLPMNKEWPSNLDLRKELSEPSSTRIYAIAKAIDDNMSLDEIEKLTYIDKWFLYKMRDILNMEKTLKGLNSESMTEETLKRAKEIGFSDKQISKCLGLTEAQTRELRLKKNIHPWVKQIDTLAAEYPSVTNYLYVTYNGQEHDVNFDDHGMMVLGCGPYHIGSSVEFDWCAVSSIRTLRQLGKKTVVVNCNPETVSTDFDECDKLYFEELSLERILDIYHQEACGGCIISVGGQIPNNLAVPLYKNGVKIMGTSPLQIDRAEDRSIFSAVLDELKVAQAPWKAVNTLNEALEFAKSVDYPCLLRPSYVLSGSAMNVVFSEDEMKKFLEEATRVSQEHPVVLTKFVEGAREVEMDAVGKDGRVISHAISEHVEDAGVHSGDATLMLPTQTISQGAIEKVKDATRKIAKAFAISGPFNVQFLVKGNDVLVIECNLRASRSFPFVSKTLGVDFIDVATKVMIGENVDEKHLPTLDHPIIPADYVAIKAPMFSWPRLRDADPILRCEMASTGEVACFGEGIHTAFLKAMLSTGFKIPQKGILIGIQQSFRPRFLGVAEQLHNEGFKLFATEATSDWLNANNVPATPVAWPSQEGQNPSLSSIRKLIRDGSIDLVINLPNNNTKFVHDNYVIRRTAVDSGIPLLTNFQVTKLFAEAVQKSRKVDSKSLFHYRQYSAGKAA
- half-life of CPS1 [4]: 1.12 h
- average half-life of CPS1 in mouse serum ([5]; mice injected with FasL 0.075 μg/g, OD values of 24 h to 32 h of five mice, mean±standard error of mean): 2.1 ± 0.15 h
- half-life of CPS1 in mouse serum ([5]; mice, FasL treatment 0.075 μg/g, combination of turnover and ongoing release): ~2.1 h
